Data taken from US20110124572A1, “SYNDECAN-4 IS A REGULATOR OF RAC1-GTP” (priority 2008, published 2011).
Changes are numbered by the printed parent chain. “And” between values parts separate entries of the source, which are not always exact repeats. Identical values can stand only once.

B1: wt-syndecan-4: human syndecan-4 with GFP inserted at position 131, stably expressed in MCF-7 cells (protein)
chain: ESIRETEVIDPQDLLEGRYFSGALPDDEDVVGPGQESDDFELSGSGDLDDLEDSMIGPEVVHPLVPLDNHIPERAGSGSQVPTEPKKLEENEVIPKRISPVEESEDVSNKVSMSSTVQGSNIFERTEVLAALIVGGIVGILFAVFLILLLMYRMKKKDEGSYDLGKKPIYKKAPTNEFYA
modifications: left off: large carriers
notes: human syndecan-4 with GFP inserted at position 131, stably expressed in MCF-7 cells
B2: Ser179Ala: phosphodefective Ser179 to Ala mutant of human syndecan-4-GFP, expressed in MCF-7 cells (protein, UniProt P31431 19-198, looked up, variant S179A)
Syndecan-4: B1 chain with S161A
modifications: GFP inserted at position 131
notes: phosphodefective Ser179 to Ala mutant of human syndecan-4-GFP, expressed in MCF-7 cells
B3: Ser179Glu: phosphomimetic Ser179 to Glu mutant of human syndecan-4-GFP, expressed in MCF-7 cells (protein, UniProt P31431 19-198, looked up, variant S179E)
Syndecan-4: B1 chain with S161E
modifications: GFP inserted at position 131
notes: phosphomimetic Ser179 to Glu mutant of human syndecan-4-GFP, expressed in MCF-7 cells

Assays:
[1] = tested on: MCF-7 cells; assay: Cell migration assay (time-lapse) on fibronectin; assay type: cell-based, human; conditions: MCF-7 line expressing the syndecan-4 variant, fibronectin
Experimental: (§1) The MCF-7 breast adenocarcinoma cells were obtained from ATCC, cultured in DMEM:F12 (Cambrex, Walkersville, Md., USA) supplemented with 10% fetal bovine serum (FBS) (Gibco, Bethesda, Md., USA), otherwise stated. The stably transfected cell lines were propagated in DMEM:F12 medium supplemented with 10% FBS and 200 μg/ml G418 (Cambrex, Walkersville, Md., USA). The cell lines were seeded onto glass coverslips or plastic dishes coated for 2 h with 10 μg/ml fibronectin (Sigma-Aldrich, St. Louis, Mo., USA). Scratch-wound assays were performed on stable transfected Syndecan-4 wild, Ser179Ala and Ser179Glu cells at 80% confluency. The cultures were scratched with a sterile P10 pipette tip 3-4 times in parallel lines. Images were taken 12, 24, 36 and 48 h following wounding.
In the cell migration assay 60% confluent MCF7 cells or the stably transfected lines were stimulated by 1 μM phorbol-12-myristate-13-acetate (PMA; from Sigma-Aldrich St. Louis, Mo., USA), otherwise stated. The images were taken using 10×, 20×0.3 objective at 3-min intervals for 2 h using inverted microscope (Leica) and organized into time-lapse movies in Adobe ImageReady® v. 8.
Results of the previous scratch-wound assay gave a hint that the Ser179Glu cells gained a migratory phenotype. […]

[2] = tested on: Rac1; assay: Rac1 GTPase pulldown assay (Rac1-GTP level); assay type: cell-based, human; conditions: for relative Rac1-GTP level: relative to non-treated wt-syndecan-4; for reduction of activated Rac1 (GTP-Rac1) level: Gö6976 treatment
Experimental: (§2) Rac1 activity was characterised by applying RAC-activation kit purchased from Millipore (Upstate) and it was used according to the manufacturer's prescription. Briefly, p21-binding domain of PAK-1 was fused to agarose beads, which specifically binds to and precipitates Rac-GTP and Cdc42-GTP from cell lysates. Cells were harvested at 70% confluency of 25 ml flasks. The wild type Syndecan-4, Ser179Ala and Ser179Glu cells were treated for 60 minutes with 1 μM PMA (Sigma-Aldrich), or 500 nM rottlerin (Sigma-Aldrich), or 10 nM Gö6976 (Biosource, Camarillo, Calif., USA). The active Rac1 was detected by Western blotting using mouse anti-Rac1 antibody (Upstate). To test whether GST-Pak1-Rac/Cdc42-binding domain could pull syndecan-4 down, the blot was probed with rabbit polyclonal anti-syndecan-4 or mouse monoclonal anti-GFP antibody.

[3] = tested on: GTP-Rac/Cdc42-PAK complex; assay: Pull-down of syndecan-4 by Rac1/CDC42-binding domain of PAK; parameters: species or system human; conditions: PAK-PKB pull-down, no γ-S GTP
Experimental: as §2
We tested whether the protein complex pulled down with the Rac1/CDC 42-binding domain of PAK (PAK-PKB) used in the Rac1 assay contained syndecan-4. Parallel filter of the Rac1 assay was probed with anti-syndecan-4 or anti-GFP antisera. The syndecan-4-GFP monomers migrating with 55 kDa relative electrophoretic mobility gave strong signals (FIG. 6). The amount of pulled-down syndecan-4 was in accordance with Rac1 level detected in the different syndecan-4 constructs (FIG. 6). […] When γ-S GTP was applied to the cell lysates to equalize the pulled-down Rac1-GTP level there was no difference in the amount of pulled-down syndecan-4 variants (FIG. 6). So, the affinity of the different syndecan-4 mutants is the same to the GTP-Rac/Cdc42-PAK complex. […]
We tested syndecan-4 whether it was pulled down by the Rac1/CDC 42-binding domain of PAK (PAK-PKB) used in the Rac1 assay. The syndecan-4-GFP monomers were detected as a 55 kDa relative electrophoretic mobility band probed with anti-syndecan-4 or anti-GFP antisera. […] The amount of pulled-down syndecan-4 was in accordance with Rac1 level detected in the different syndecan-4 constructs (FIG. 6). […]

[4] = tested on: MCF-7 cells; assay: Scratch-wound assay; assay type: cell-based, human; conditions: for time to closure of the scratch gap: fibronectin, scratched at 80% confluence
Experimental: as §1
The wt-syndecan-4, Ser179Ala, and Ser179Glu lines were tested how they close the scratched wound on fibronectin substratum. At 80% confluence the cultures were scratch-wounded and healing was monitored. Still images were captured at the indicated time points (FIG. 1). In monolayers of the wt-syndecan-4 and the Ser179Ala lines the wounds healed from the edges, i.e. progenies of cell division narrowed the scratch but kept tight contact with the cell layer. […] The gaps closed in every case almost at the same time, in 42 hour. There was no difference in the growth rate of the different lines measured by SRB assay (data not shown).

[5] = target: T1, Tiam-1 (Homo sapiens, UniProt Q13009); assay: Immunoprecipitation with anti-Tiam-1; assay type: binding; conditions: for Rac1 in the Tiam-1 precipitate: lysate of cells expressing the variant
T1 construct: we tested whether syndecan-4 can be co-immunoprecipitated by anti-Tiam-1; endogenous in cells; host or cells: MCF-7 lines expressing wt, Ser179Ala or Ser179Glu syndecan-4-GFP (RIPA lysates, GDP- or γ-S-GTP-saturated)
T1 sequence (Q13009 whole entry): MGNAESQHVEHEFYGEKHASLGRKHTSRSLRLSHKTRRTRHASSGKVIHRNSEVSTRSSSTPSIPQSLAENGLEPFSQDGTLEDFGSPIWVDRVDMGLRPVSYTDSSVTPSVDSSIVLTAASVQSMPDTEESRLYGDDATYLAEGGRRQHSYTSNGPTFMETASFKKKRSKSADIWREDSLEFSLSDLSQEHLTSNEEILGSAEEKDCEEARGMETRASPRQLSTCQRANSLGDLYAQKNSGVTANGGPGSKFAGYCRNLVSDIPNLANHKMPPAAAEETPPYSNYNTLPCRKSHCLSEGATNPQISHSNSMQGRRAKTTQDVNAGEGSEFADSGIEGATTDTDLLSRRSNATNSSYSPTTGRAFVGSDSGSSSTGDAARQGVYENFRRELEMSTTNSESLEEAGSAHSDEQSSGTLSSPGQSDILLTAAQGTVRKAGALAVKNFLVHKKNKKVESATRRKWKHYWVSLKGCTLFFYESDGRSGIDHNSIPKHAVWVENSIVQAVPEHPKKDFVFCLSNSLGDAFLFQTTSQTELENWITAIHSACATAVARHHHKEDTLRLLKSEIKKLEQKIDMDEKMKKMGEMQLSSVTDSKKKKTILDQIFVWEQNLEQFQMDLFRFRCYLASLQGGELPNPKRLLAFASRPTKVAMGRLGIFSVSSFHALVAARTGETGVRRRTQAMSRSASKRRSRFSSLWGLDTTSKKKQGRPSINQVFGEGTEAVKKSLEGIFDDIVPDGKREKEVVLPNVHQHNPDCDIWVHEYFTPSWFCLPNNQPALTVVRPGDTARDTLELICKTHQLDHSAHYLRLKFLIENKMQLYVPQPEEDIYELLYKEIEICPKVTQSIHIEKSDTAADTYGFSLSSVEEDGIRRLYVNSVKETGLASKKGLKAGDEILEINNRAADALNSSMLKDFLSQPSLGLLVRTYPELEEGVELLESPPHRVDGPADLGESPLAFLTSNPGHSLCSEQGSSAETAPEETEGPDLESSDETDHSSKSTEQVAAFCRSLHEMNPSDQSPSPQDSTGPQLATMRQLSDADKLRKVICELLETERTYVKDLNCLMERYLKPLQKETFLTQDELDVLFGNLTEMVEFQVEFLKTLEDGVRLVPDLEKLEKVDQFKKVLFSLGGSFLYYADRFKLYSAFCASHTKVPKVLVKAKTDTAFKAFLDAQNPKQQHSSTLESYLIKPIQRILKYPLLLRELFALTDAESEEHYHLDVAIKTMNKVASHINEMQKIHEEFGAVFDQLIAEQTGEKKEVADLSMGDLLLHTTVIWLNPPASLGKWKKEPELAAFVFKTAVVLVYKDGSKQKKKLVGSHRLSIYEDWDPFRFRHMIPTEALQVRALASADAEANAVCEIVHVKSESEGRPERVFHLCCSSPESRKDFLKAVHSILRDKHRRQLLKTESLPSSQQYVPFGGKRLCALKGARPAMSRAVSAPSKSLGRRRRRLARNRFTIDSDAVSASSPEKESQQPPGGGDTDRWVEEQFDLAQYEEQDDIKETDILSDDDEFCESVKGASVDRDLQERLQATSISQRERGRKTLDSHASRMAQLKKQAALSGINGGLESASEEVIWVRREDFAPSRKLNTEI
Experimental: In brief, 70% confluent cultures of 25 mL flask were detached, pelleted and following 2 times washing with PBS. The pellet were lysed in RIPA buffer then centrifuged and the supernatant was pre-cleared by addition of 5 μL of protein A/G-sepharose beads slurry (Pierce) for 2 hours, then the supernatant was incubated with the antibody of interest for 24 hours. 10 μL of protein A/G slurry was added for 2 hours, collected by pulse centrifugation, washed 3 times with lysis buffer, resuspended in 2×SDS loading buffer subjected to SDS-PAGE, followed by immunoblotting with the appropriate antibodies.
Since Tiam-1 is a Rac1-GEF (GTP exchange factor) and it could be pulled down by PAK-PKB (Mendoza-Naranjo et al., 2006) we tested whether syndecan-4 can be co-immunoprecipitated by anti-Tiam-1. The syndecan-4 chimeras were detected by anti-syndecan-4 and anti-GFP antisera at 55 kDa and 90 kDa length, which were correspondent to the monomer and dimmer forms, respectively. Because the co-sedimentation of syndecan-4 by PAK-PKB was GDP-GTP dependent we tested if the GDP or GTP had effect for the amount of the anti-Tiam-1-co-immunoprecipitated syndecan-4 forms.
PDZ domain of Tiam-1 was reported to bind peptides containing amino acid sequence of FYA (Songyang et al., 1997) that is part of the cytoplasmic segment of syndecan-4. Therefore syndecan-4 seemed a good candidate to interact with Tiam-1. In the immunoprecipitate of Tiam-1 syndecan-4 variants were detected by anti-syndecan-4 or anti-GFP antisera at 55 kDa length, which was correspondent to the monomer forms. There was no significant difference in the binding of Tiam-1 and syndecan-4 variants in the GDP or γ-S GTP saturated cases.
Considering that phospho-syndecan-4 down-regulates the Rac1 activity consequently Rac1 was also tested in the Tiam-1 precipitate to study the nature of inhibition. If the Rac1 activity were regulated by direct interaction of syndecan-4 we might expect a trapped intermedier as it was found in the case of Brefeldin A (Renault et al., 2003).

Molecule	migration ([1]; 1 μM PMA)	relative Rac1-GTP level ([2]; 10 nM Gö6976 60 min)	relative Rac1-GTP level ([2]; 1 μM PMA 60 min)	reduction of activated Rac1 (GTP-Rac1) level [2]	relative Rac1-GTP level ([2]; nt (non-treated))	amount of pulled-down syndecan-4, less than from the Ser179Ala line [3]	time to closure of the scratch gap [4]	syndecan-4 form co-immunoprecipitated by anti-Tiam-1 ([5]; cell lysate saturated by GDP)	Rac1 in the Tiam-1 precipitate [5]	amount of pulled-down syndecan-4, more than the wt-syndecan-4 [3]	migration ([1]; nt (non-treated))	decrease of the Rac1-GTP level ([2]; expression of the variant, untreated)	amount of pulled-down syndecan-4 [3]	cell motility in the scratched area ([4]; by 12 hours following wounding)	syndecan-4 form co-immunoprecipitated by anti-Tiam-1 ([5]; γ-S GTP saturated lysate)
B1	0.3±0.1 μm/min and 0.3 μm/min	0.25 ± 0.03	0.25 and 0.25 ± 0.05	4.2±0.4 fold	1	approximately 20%	42 h	dominant	observed						
B2		1±0.1 and 1 ± 0.01	0.46 ± 0.05		1.9±0.15		42 h	dominant	observed	approximately 20%					
B3		0.06 ± 0.02	0.9±0.2 and 0.95 ± 0.06	16±2 fold	0.6±0.1		42 h				0.4±0.1 μm/min	1.5 fold	hardly detectable	enhanced cell motility	detected abundantly
